Assay results reported in patent US20200247894A1 (Regeneron, published 2020).
Each block holds one binder with its values, some of them ahead of it.

Legend:
[1] = biological target: T1, Macaca fascicularis IL2Rγ extracellular domain expressed with a C-terminal myc-myc-hexahistidine tag (Macaca fascicularis); experiment: SPR, captured mAb, 25C, dissociation pH 7.4
T1 construct: also called mfIL-2Rg-MMH; mfIL-2RG-MMH
T1 chain: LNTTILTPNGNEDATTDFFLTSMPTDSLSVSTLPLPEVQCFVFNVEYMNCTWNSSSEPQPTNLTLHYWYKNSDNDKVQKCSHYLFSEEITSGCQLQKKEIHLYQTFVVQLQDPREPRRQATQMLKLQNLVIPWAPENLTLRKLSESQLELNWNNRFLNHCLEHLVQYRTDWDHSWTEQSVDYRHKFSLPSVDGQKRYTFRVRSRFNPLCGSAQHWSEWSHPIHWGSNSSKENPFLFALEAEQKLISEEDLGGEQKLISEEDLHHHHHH
Description: (§1) The dissociation rate constant (kd) for binding of IL-2Rγ reagents to purified anti-IL2Rγ monoclonal antibodies was determined using a real-time surface plasmon resonance based Biacore 4000 biosensor platform. […] The CM5 Biacore sensor surface derivatized by amine coupling with monoclonal mouse anti-human Fc antibody (GE, Catalog # BR-1008-39) was used to capture anti-IL2Rγ monoclonal antibodies expressed with human IgG4 Fc. All the IL2Rγ reagents were expressed with a C-terminal myc-myc-hexahistidine tag (subsequently referred to with a -MMH suffix). […] The dissociation of bound IL-2Rg-MMH was performed in PBS-T-pH7.4 or PBS-T-pH6.0 running buffers for 6 minutes.
(§2) Dissociation rate constants (kd) in two running buffers were determined by fitting the real-time binding sensorgrams to a 1:1 binding model using Scrubber 2.0c curve-fitting software. Values of dissociation rate for […] mAb binding to hIL-2RG-MMH and mfIL-2RG-MMH at 25° C. and 37° C. in PBS-T-pH7.4 and PBS-T-pH6.0 is shown in Table 2-1 through Table 2-8.

[2] = biological target: T2, Human IL2Rγ extracellular domain expressed with a C-terminal myc-myc-hexahistidine tag (human); experiment: SPR, captured mAb, 25C, dissociation pH 7.4
T2 construct: also called hIL-2Rg-MMH; hIL-2RG-MMH
T2 chain: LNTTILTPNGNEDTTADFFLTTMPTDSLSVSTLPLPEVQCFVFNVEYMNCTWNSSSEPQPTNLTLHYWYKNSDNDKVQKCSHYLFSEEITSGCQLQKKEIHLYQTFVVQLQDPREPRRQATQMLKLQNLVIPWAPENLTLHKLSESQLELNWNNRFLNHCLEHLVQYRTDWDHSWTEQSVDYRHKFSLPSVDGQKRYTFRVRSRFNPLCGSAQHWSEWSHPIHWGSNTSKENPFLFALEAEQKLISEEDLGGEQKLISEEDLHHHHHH
Description: as §1, §2

[3] = biological target: T2, Human IL2Rγ extracellular domain …; experiment: SPR, captured mAb, 37C, dissociation pH 6.0
Description: as §1, §2

[4] = biological target: T2, Human IL2Rγ extracellular domain …; experiment: SPR, captured mAb, 37C, dissociation pH 7.4
Description: as §1, §2

[5] = biological target: T1, Macaca fascicularis IL2Rγ extracellular …; experiment: SPR, captured mAb, 25C, dissociation pH 6.0
Description: as §1, §2

[6] = biological target: T2, Human IL2Rγ extracellular domain …; experiment: SPR, captured mAb, 25C, dissociation pH 6.0
Description: as §1, §2

[7] = biological target: T3, Macaca fascicularis IL2Rγ extracellular domain expressed with a C-terminal myc-myc-hexahistidine tag (Macaca fascicularis); experiment: SPR Biacore 4000, mAb captured by anti-hFc, HBS-ET, 25C
T3 construct: also called mfIL-2Rg-MMH; mfIL-2RG-MMH
T3 chain: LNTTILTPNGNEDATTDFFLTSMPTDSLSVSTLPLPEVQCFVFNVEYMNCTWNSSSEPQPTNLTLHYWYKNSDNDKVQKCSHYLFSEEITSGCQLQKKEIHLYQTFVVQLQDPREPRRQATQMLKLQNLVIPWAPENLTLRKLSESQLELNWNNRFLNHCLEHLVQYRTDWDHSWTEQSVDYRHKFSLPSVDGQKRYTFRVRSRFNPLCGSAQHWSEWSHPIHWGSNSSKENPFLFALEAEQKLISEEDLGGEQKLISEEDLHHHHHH
Description: (§3) Equilibrium dissociation constants (KD values) for IL-2Rγ binding to purified anti-IL2Rγ monoclonal antibodies were determined using a Biacore 4000 instrument equipped with a real-time surface plasmon resonance biosensor. All binding studies were performed in 10 mM HEPES, 150 mM NaCl, 3 mM EDTA, and 0.05% v/v Surfactant Tween-20, pH 7.4 (HBS-ET) running buffer at 25° C. and 37° C. The Biacore sensor surface was first derivatized by amine coupling with a monoclonal mouse anti-human Fc antibody (GE, # BR-1008-39) to capture anti-IL2Rγ monoclonal antibodies.
(§4) The dissociation of monoclonal antibody bound IL2Rγ reagents were monitored for 8-10 minutes in HBS-ET running buffer. Kinetic association (kₐ) and dissociation (kd) rate constants were determined by fitting the real-time sensorgrams to a 1:1 binding model using Scrubber 2.0c curve fitting software. Binding dissociation equilibrium constants (KD) and dissociative half-lives (t_{1/2}) were calculated from the kinetic rate constants as: […]

[8] = biological target: T4, Human IL2Rγ extracellular domain expressed with a C-terminal myc-myc-hexahistidine tag (human); experiment: as above
T4 construct: also called hIL-2Rg-MMH; hIL-2RG-MMH
T4 chain: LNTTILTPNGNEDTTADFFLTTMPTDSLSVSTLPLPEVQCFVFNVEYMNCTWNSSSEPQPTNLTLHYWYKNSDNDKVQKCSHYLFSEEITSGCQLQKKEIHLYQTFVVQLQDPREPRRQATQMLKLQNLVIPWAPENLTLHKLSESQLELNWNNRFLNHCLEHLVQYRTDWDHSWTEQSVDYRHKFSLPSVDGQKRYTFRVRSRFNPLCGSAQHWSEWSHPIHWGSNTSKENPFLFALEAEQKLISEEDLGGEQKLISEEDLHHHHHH
Description: as §3, §4

[9] = biological target: T3, Macaca fascicularis IL2Rγ extracellular …; experiment: SPR Biacore 4000, mAb captured by anti-hFc, 37C, dissociation in PBS-T pH 6.0
Description: as §1, §2

[10] = biological target: T4, Human IL2Rγ extracellular domain …; experiment: SPR Biacore 4000, mAb captured by anti-hFc, HBS-ET, 37C
Description: as §3, §4

[11] = biological target: T3, Macaca fascicularis IL2Rγ extracellular …; experiment: SPR Biacore 4000, mAb captured by anti-hFc, 37C, dissociation in PBS-T pH 7.4
Description: as §1, §2

- 100 nM Ag Bound (RU) [1]: 43 RU
- koff [1]: 0.00782 s⁻¹
- t1/2 [1]: 1.5 min
- 100 nM Ag Bound (RU) [2]: 29 RU
- koff [2]: 0.0133 s⁻¹
- t1/2 [2]: 0.9 min
- 100 nM Ag Bound (RU) [3]: 14 RU
- koff [3]: 0.0312 s⁻¹
- t1/2 [3]: 0.4 min
- 100 nM Ag Bound (RU) [4]: 14 RU
- koff [4]: 0.0308 s⁻¹
- t1/2 [4]: 0.4 min
- 100 nM Ag Bound (RU) [5]: 32 RU
- koff [5]: 0.0185 s⁻¹
- t1/2 [5]: 0.6 min
- 100 nM Ag Bound (RU) [6]: 24 RU
- koff [6]: 0.0297 s⁻¹
- t1/2 [6]: 0.4 min
B1: H4H12926P2 (antibody, human IgG4 S228P, kappa, V domains shown)
VH: QVQLQQSGPGLVKPSQTLSLTCAISGDSVSSNIAAWNWIRLSPSRGLEWLGRTFFRSTWFYDYSLSVKGRITINPDTSKNQFSLHLNSVTPEDAAVYYCARTGRRWSLDYWGQGTLVTVSS
VL: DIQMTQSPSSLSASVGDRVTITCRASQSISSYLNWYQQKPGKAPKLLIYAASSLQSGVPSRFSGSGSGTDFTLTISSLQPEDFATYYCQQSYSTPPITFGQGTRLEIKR
notes: anti-IL2Rgamma mAb expressed with human IgG4 Fc

- 100 nM Ag Bound (RU) [1]: 37 RU
- koff [1]: 0.000208 s⁻¹
- t1/2 [1]: 56 min
- 100 nM Ag Bound (RU) [2]: 31 RU
- koff [2]: 0.000177 s⁻¹
- t1/2 [2]: 65 min
- 100 nM Ag Bound (RU) [3]: 52 RU
- koff [3]: 0.00163 s⁻¹
- t1/2 [3]: 7 min
- 100 nM Ag Bound (RU) [4]: 54 RU
- koff [4]: 0.000671 s⁻¹
- t1/2 [4]: 17 min
- 100 nM Ag Bound (RU) [5]: 34 RU
- koff [5]: 0.000488 s⁻¹
- t1/2 [5]: 24 min
- 100 nM Ag Bound (RU) [6]: 34 RU
- koff [6]: 0.000505 s⁻¹
- t1/2 [6]: 23 min
B2: H4H12908P (antibody, human IgG4 S228P, kappa, V domains shown)
VH: EVQLVESGGRLVQPGGSLRLSCEASGFTFSNYGMTWVRQAPGKGLEWVSVISGSDNRKYYAESVKGRFTISRDNSKNTLYLQMNSLRAEDTAVYYCAKLGYSRSSKDFYYGMDVWGQGTTVTVSS
VL: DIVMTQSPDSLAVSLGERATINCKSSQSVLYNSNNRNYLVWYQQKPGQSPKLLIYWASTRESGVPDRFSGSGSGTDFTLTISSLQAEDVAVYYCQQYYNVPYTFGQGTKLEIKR
notes: as for B1

- 100 nM Ag Bound (RU) [1]: 30 RU
- koff [1]: 0.00751 s⁻¹
- t1/2 [1]: 1.5 min
- 100 nM Ag Bound (RU) [2]: 15 RU
- koff [2]: 0.0213 s⁻¹
- t1/2 [2]: 0.5 min
- 100 nM Ag Bound (RU) [3]: 6 RU
- 100 nM Ag Bound (RU) [4]: 7 RU
- 100 nM Ag Bound (RU) [5]: 20 RU
- koff [5]: 0.00935 s⁻¹
- t1/2 [5]: 1.2 min
- 100 nM Ag Bound (RU) [6]: 11 RU
- koff [6]: 0.0334 s⁻¹
- t1/2 [6]: 0.3 min
B3: H4H13545P2 (antibody, human IgG4 S228P, kappa, V domains shown)
VH: QVQLQQSGPGLVKPSQTLSLTCDISGDSVSSNIATWNWIRQSPSRGLEWLGRTYYRSKWYKDYAVSVKSRITINPDTSKNQFSLQVNSVTPEDTAVYYCARMTGPRYYFEYWGQGTLVTVSS
VL: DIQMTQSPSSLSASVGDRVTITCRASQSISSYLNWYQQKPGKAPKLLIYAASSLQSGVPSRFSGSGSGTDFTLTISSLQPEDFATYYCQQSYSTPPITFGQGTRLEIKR
notes: as for B1

- 100 nM Ag Bound [7]: 81 RU
- Kd [7]: 2.28 nM
- koff [7]: 0.000304 s⁻¹
- kon [7]: 133000 M⁻¹ s⁻¹
- t1/2 [7]: 38 min
- 100 nM Ag Bound [8]: 68 RU
- Kd [8]: 1.02 nM
- koff [8]: 0.000227 s⁻¹
- kon [8]: 222000 M⁻¹ s⁻¹
- t1/2 [8]: 51 min
- 100 nM Ag Bound (RU) [9]: 122 RU
- koff [9]: 0.00139 s⁻¹
- t1/2 [9]: 8 min
- 100 nM Ag Bound [10]: 99 RU
- Kd [10]: 3.4 nM
- koff [10]: 0.00108 s⁻¹
- kon [10]: 319000 M⁻¹ s⁻¹
- t1/2 [10]: 11 min
- 100 nM Ag Bound (RU) [11]: 119 RU
- koff [11]: 0.00051 s⁻¹
- t1/2 [11]: 23 min
B4: H4H13538P (antibody, human IgG4 S228P, kappa, V domains shown)
VH: EVQLVESGGGLVQPGGSLGLSCAASGFTFSNYAMSWVRQAPGKGLEWVSAVSGGGGGTYYADSVKGRFTISRDNSKNTVLLQMNSLRAEDTAVYYCARGRTGGLDYWGPGTLVTVSS
VL: DVVMTQSPLSLPVIFGQPASISCRSSQSLVDSDGNTYLNWLQQRPGQSPRRLIYEVSNRDSGVPDRFSGSGSGTDFTLTISRVEAEDVGIYYCMQGTRWPPTFGGGTKVEIKR
notes: anti-IL2Rγ monoclonal antibody expressed with human IgG4 Fc
